Test results from IntAct's records for PubMed 19846556.

B1: Peroxisome proliferator-activated receptor gamma coactivator 1-alpha (Homo sapiens), Q9UBK2 (parent)
chain: MAWDMCNQDSESVWSDIECAALVGEDQPLCPDLPELDLSELDVNDLDTDSFLGGLKWCSDQSEIISNQYNNEPSNIFEKIDEENEANLLAVLTETLDSLPVDEDGLPSFDALTDGDVTTDNEASPSSMPDGTPPPQEAEEPSLLKKLLLAPANTQLSYNECSGLSTQNHANHNHRIRTNPAIVKTENSWSNKAKSICQQQKPQRRPCSELLKYLTTNDDPPHTKPTENRNSSRDKCTSKKKSHTQSQSQHLQAKPTTLSLPLTPESPNDPKGSPFENKTIERTLSVELSGTAGLTPPTTPPHKANQDNPFRASPKLKSSCKTVVPPPSKKPRYSESSGTQGNNSTKKGPEQSELYAQLSKSSVLTGGHEERKTKRPSLRLFGDHDYCQSINSKTEILINISQELQDSRQLENKDVSSDWQGQICSSTDSDQCYLRETLEASKQVSPCSTRKQLQDQEIRAELNKHFGHPSQAVFDDEADKTGELRDSDFSNEQFSKLPMFINSGLAMDGLFDDSEDESDKLSYPWDGTQSYSLFNVSPSCSSFNSPCRDSVSPPKSLFSQRPQRMRSRSRSFSRHRSCSRSPYSRSRSRSPGSRSSSRSCYYYESSHYRHRTHRNSPLYVRSRSRSPYSRRPRYDSYEEYQHERLKREEYRREYEKRESERAKQRERQRQKAIEERRVIYVGKIRPDTTRTELRDRFEVFGEIEECTVNLRDDGDSYGFITYRYTCDAFAALENGYTLRRSNETDFELYFCGRKQFFKSNYADLDSNSDDFDPASTKSKYDSLDFDSLLKEAQRSLRR
partner: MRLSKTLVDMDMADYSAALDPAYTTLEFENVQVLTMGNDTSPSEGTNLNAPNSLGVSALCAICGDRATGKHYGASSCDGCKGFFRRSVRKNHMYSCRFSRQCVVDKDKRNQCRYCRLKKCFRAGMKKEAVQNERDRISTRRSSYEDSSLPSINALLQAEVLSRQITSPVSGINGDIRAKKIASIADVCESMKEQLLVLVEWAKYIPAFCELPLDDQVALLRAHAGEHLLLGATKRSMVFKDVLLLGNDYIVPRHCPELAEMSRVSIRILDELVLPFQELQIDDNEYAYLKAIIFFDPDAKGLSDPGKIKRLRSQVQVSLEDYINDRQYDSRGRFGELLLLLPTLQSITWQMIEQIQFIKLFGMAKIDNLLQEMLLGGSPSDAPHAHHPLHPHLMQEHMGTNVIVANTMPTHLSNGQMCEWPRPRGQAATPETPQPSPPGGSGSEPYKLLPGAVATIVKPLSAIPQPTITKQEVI

Key:
[1] = variants of: B1; conditions: with hnf4a_human HNF4A
[2] = variants of: B1; conditions: with hnf4a_human HNF4A; remark: listed apart in the source

Row | Variant | effect of a mutation on the interaction [1] | effect of a mutation on the interaction [2]
1 | V91A;L92A;L147A;L148A;Y213A;L214A | disrupting interaction | disrupting interaction
2 | L147A;L148A;Y213A;L214A | disrupting interaction | disrupting interaction
3 | V91A;L92A |  | decreasing interaction
4 | Y213A;L214A | decreasing interaction | 
5 | V91A;L92A;L147A;L148A | decreasing interaction | decreasing interaction

Next, values leading:

Row | effect of a mutation on the interaction [1] | effect of a mutation on the interaction [2] | Variant
6 | decreasing interaction |  | L147A;L148A
7 | decreasing interaction | decreasing interaction | V91A;L92A;Y213A;L214A
